Measurements reported in patent publication US20250215050A1.
pKd: −log10 of the molar value.

What was measured:
[1] = molecular target: CHO host cell proteins (HCPs); experiment: dynamic binding, CHO cell culture fluid; summary for G.1 and G.2 together
[2] = molecular target: CHO host cell proteins (HCPs); experiment: static binding of CHO HCPs; summary
[3] = molecular target: CHO host cell proteins (HCPs); experiment: static binding, null CHO-S cell culture fluid; summary for G.1 and G.2 together
[4] = molecular target: CHO host cell proteins (HCPs); experiment: dynamic binding of CHO HCPs, residence time 2 min; summary
[5] = molecular target: CHO host cell proteins (HCPs); experiment: dynamic binding of CHO HCPs, residence time 1 min; summary
[6] = molecular target: CHO host cell proteins (HCPs); experiment: static binding on resin, competitive, CHO HCPs with 1 mg/mL NIST mAb
[7] = molecular target: CHO host cell proteins (HCPs); experiment: static binding on resin, Langmuir isotherm fit; non-competitive, null CHO-S harvest; average HCP MW of 40 kDa assumed
[8] = molecular target: CHO host cell proteins (HCPs); experiment: static binding on resin, Langmuir fit; competitive, CHO HCPs with 5 mg/mL NISTmAb; HCP ELISA
[9] = molecular target: CHO host cell proteins (HCPs); experiment: static binding on resin, Langmuir isotherm fit; non-competitive; average HCP MW of 40 kDa assumed (Table 1 prints 6.50)
[10] = molecular target: CHO host cell proteins (HCPs); experiment: static binding on resin, competitive, CHO HCPs with 5 mg/mL NIST mAb
NIST mAb [11] = experiment: static binding on resin, Langmuir isotherm fit; non-competitive, pure NISTmAb solution
[12] = molecular target: CHO host cell proteins (HCPs); experiment: static binding on resin, Langmuir isotherm fit; non-competitive, null CHO-S harvest
[13] = molecular target: CHO host cell proteins (HCPs); experiment: static binding on resin, Langmuir fit; competitive, CHO HCPs with 1 mg/mL NISTmAb; HCP ELISA
[14] = molecular target: CHO host cell proteins (HCPs); experiment: breakthrough curve, industrial CHO harvest (mAb 1.38 mg/mL, HCP 0.46 mg/mL), residence time 5 min
[15] = molecular target: CHO host cell proteins (HCPs); experiment: breakthrough curve, industrial CHO harvest (mAb 1.38 mg/mL, HCP 0.46 mg/mL), residence time 0.5 min
[16] = molecular target: CHO host cell proteins (HCPs); experiment: breakthrough curve, industrial CHO harvest (mAb 1.38 mg/mL, HCP 0.46 mg/mL), residence time 1 min
[17] = molecular target: CHO host cell proteins (HCPs); experiment: breakthrough curve, industrial CHO harvest (mAb 1.38 mg/mL, HCP 0.46 mg/mL), residence time 2 min
NIST mAb [18] = experiment: adsorption kinetics on resin (FIG. 8A), pure NIST mAb in PBS pH 7.4
[19] = molecular target: CHO host cell proteins (HCPs); experiment: static binding on resin, competitive against non-competitive conditions
[20] = molecular target: CHO host cell proteins (HCPs); experiment: adsorption kinetics on resin (FIG. 8A), null CHO-S harvest; average HCP MW of 40 kDa assumed
non-Ig plasma proteins [21] = experiment: flow-through loading of cryo-poor plasma diluted 10-fold, above 10 CVs
non-Ig plasma proteins [22] = experiment: flow-through loading of diluted cryo-rich plasma, two-column process

Qmax,HCPs [6] | pKd [7] | pKd [8] | Qmax (static binding capacity) [8] | Qmax,HCPs [10] | pKd (NIST mAb [11]) | Qmax (static binding capacity) (NIST mAb [11]) | Qmax (static binding capacity) [12] | pKd [13] | Qmax (static binding capacity) [13] | Substance | other results
– | – | – | – | – | – | – | – | – | – | LigaGuard™ | DBC10% [1]: 16 to 22 mg/mL; equilibrium capacity (mg per mL of resin) [2]: 30; Qmax (maximum binding capacity) (mg per mL of resin) [3]: 28 to 30; 10% breakthrough capacity [4]: < 22 mg/mL; 10% breakthrough capacity [5]: < 16 mg/mL
13 mg/mL | 5.19 | 5.06 | 15.6 mg/mL | 10 mg per mL | 4.85 | 11.5 mg/mL | 21.8 mg/mL | 5.06 | 18.8 mg/mL | first generation (G.1) LigaGuard™ resin | pKd [9]: 5.17
18 mg per mL | 5.49 | 5.32 | 22.4 mg/mL | 16 mg per mL | 4.55 | 10.5 mg/mL | 24.5 mg/mL | 5.37 | 23.1 mg/mL | second generation (G.2) LigaGuard™ resin | DBC10% (dynamic binding capacity at 10% breakthrough) [14]: 17.6 mg per mL; DBC10% (dynamic binding capacity at 10% breakthrough) [15]: 14.3 mg/mL; DBC10% (dynamic binding capacity at 10% breakthrough) [16]: 16.7 mg/mL; DBC10% (dynamic binding capacity at 10% breakthrough) [17]: 16.2 mg/mL; kon (NIST mAb [18]): 8710 M⁻¹ s⁻¹; decrease of Qmax,HCPs on adding 1 mg/mL mAb [19]: 25%; kon [20]: 39000 M⁻¹ s⁻¹
– | – | – | – | – | – | – | – | – | – | second-generation LigaGuard™ adsorbent (plasma work, Examples 5 and 6) | QPP at saturation (non-Ig plasma proteins [21]): 30 mg/mL; binding capacity (mg per mL of resin) (non-Ig plasma proteins [22]): 32
